T1: GARS, endogenous in H929 multiple myeloma cells (human, UniProt P41250 37-739, limits assumed)
T1 construct: Native protein pulled down from H929 lysates; also called Glycyl-tRNA synthetase; GlyRS
T1 sequence: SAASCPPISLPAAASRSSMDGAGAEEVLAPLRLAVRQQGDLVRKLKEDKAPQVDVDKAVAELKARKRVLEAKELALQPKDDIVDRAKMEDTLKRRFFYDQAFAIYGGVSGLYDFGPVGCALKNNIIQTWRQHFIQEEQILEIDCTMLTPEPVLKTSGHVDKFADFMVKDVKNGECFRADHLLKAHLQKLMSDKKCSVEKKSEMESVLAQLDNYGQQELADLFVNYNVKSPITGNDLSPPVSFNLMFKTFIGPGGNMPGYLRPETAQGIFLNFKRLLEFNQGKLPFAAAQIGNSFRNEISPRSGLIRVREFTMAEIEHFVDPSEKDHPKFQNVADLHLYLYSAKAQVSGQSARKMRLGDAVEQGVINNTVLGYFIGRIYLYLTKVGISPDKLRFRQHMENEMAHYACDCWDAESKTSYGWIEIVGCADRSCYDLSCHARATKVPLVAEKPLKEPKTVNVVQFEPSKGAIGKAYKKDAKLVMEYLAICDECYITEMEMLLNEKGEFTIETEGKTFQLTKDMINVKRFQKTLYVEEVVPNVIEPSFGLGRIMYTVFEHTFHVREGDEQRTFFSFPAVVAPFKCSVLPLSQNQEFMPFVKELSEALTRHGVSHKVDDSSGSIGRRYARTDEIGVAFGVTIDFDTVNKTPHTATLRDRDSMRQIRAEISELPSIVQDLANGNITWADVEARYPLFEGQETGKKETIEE

T2: IL13RA1
T2 construct: also called IL13RA1-Fc-His (R&D Systems)
T2 chain: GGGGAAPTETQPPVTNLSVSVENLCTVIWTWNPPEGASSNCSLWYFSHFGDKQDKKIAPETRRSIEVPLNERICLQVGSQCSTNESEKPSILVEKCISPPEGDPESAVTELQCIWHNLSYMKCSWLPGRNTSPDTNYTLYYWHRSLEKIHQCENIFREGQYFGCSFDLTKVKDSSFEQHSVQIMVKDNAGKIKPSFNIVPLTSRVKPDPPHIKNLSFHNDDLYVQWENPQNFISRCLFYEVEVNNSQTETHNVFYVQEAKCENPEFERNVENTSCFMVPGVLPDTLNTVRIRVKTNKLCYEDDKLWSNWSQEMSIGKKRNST

T3: SLAMF7
T3 construct: also called SLAMF7-StrepTag; not shown: StrepTag and any linker
T3 chain: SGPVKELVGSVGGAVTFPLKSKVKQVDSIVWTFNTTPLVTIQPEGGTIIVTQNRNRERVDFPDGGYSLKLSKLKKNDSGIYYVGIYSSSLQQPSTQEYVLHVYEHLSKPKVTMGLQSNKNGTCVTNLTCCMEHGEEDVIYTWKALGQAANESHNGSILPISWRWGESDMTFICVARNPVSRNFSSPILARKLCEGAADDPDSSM

T4: ANXA1
T4 construct: also called ANXA1-His (R&D Systems); not shown: His tag
T4 chain: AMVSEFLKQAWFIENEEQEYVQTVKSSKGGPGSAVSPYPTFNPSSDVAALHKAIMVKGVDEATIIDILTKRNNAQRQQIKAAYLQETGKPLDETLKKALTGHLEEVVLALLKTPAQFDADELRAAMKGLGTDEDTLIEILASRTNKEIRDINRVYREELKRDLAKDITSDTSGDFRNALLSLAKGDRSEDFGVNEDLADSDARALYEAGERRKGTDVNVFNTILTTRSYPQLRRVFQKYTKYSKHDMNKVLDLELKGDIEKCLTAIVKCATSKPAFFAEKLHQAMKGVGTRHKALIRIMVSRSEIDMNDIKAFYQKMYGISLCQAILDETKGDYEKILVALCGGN


What was measured:
[1] = molecular target: T1, GARS, endogenous in H929 multiple …; assay: flow cytometry, H929 + vehicle; None 513; surface target GARS putative
[2] = molecular target: T1, GARS, endogenous in H929 multiple …; assay: flow cytometry, H929 + NT Green siRNA; None 416; surface target GARS putative
[3] = molecular target: T1, GARS, endogenous in H929 multiple …; assay: flow cytometry, H929 + ICAM1 siRNA; None 455; surface target GARS putative
[4] = molecular target: T1, GARS, endogenous in H929 multiple …; assay: flow cytometry, H929 + CDH18 siRNA; None 0.19; surface target GARS putative
[5] = molecular target: T1, GARS, endogenous in H929 multiple …; assay: flow cytometry, H929 + vehicle; None 2.74; surface target GARS putative
[6] = molecular target: T2, IL13RA1; assay: ELISA on coated protein
Method: (§1) Recombinant purified ECDs (50-150 ng) of each putative target protein were coated, incubated with 150 ng of the indicated primary antibody, and binding was detected using a peroxidase-conjugated anti-human Fab secondary antibody. Heatmap represents averages of technical triplicates. (8B) Target validation via siRNA knockdown. H929 cells were transfected with siRNA pools targeting the putative antibody targets ICAM1, CADM1, and PTPRG. Cells were then subjected to cognate IgG binding analysis via flow cytometry. (NT, non-targeting siRNA).
(§2) ELISA ELISA was conducted as described previously. Briefly, 50-150 ng of antigen was coated overnight in half-area 96-well plates at 4° C., blocked with 3% BSA at 37° C. for 1 h, and 150 ng of chimeric rabbit/human IgG1 was added, incubating for 2 h at 37° C. […] After incubating at 37° C. for 15 min-1 h (depending on intensity of controls), data were acquired using a SpectraMax M5 plate reader (Molecular Devices).

[7] = molecular target: T3, SLAMF7; assay: ELISA on coated protein
Method: as §1, §2

[8] = molecular target: T4, ANXA1; assay: ELISA on coated protein
Method: as §1, §2

[9] = molecular target: T5, PTPRG, endogenous in H929 multiple myeloma cells (human, UniProt P23470 20-1445); assay: flow cytometry, H929 + NT Green siRNA; None 1.35
T5 construct: Native protein on H929 cells (flow cytometry, siRNA knockdown) and in H929 lysates (IP/MS); also called phosphatase receptor type γ
T5 sequence (P23470 20-1445 limits assumed): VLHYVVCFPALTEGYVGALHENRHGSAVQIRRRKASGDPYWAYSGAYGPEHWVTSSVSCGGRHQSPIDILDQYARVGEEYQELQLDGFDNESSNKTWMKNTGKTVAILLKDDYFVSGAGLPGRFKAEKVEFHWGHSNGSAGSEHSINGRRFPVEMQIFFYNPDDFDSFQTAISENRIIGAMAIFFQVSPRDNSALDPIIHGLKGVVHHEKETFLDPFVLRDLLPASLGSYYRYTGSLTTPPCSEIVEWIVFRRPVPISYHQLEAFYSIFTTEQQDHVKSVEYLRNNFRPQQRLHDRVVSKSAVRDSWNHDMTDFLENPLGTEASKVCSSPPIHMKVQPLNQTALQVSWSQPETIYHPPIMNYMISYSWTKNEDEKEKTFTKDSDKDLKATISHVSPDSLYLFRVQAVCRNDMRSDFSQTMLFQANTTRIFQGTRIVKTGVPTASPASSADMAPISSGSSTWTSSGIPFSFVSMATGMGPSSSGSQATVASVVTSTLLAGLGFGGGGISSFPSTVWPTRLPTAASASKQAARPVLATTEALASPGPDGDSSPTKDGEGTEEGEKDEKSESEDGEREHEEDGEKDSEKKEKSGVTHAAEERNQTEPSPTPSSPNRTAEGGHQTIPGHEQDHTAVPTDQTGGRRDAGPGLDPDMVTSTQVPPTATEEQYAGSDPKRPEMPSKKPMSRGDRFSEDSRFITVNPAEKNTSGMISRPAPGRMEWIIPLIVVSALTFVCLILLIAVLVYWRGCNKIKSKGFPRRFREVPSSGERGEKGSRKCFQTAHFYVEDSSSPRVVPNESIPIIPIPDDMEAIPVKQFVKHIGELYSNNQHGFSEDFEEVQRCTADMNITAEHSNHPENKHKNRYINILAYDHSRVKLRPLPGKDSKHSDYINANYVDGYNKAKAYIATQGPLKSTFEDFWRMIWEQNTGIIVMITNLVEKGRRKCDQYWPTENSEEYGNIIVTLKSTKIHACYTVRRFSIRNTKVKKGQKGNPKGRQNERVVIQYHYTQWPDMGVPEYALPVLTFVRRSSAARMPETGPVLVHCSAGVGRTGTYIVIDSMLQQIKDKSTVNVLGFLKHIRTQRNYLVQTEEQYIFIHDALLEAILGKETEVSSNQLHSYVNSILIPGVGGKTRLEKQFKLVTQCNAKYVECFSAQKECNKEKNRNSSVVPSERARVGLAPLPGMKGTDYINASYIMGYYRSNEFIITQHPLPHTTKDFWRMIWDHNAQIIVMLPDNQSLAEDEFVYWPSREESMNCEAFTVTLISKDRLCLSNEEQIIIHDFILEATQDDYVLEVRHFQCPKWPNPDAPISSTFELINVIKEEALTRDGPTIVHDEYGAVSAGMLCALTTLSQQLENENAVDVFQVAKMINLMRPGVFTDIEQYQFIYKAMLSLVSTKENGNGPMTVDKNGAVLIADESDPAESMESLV

mAb binding (MFI) [1] | mAb binding (MFI) [2] | mAb binding (MFI) [3] | Cells stained (%) [4] | Cells stained (%) [5] | Cells stained (%) [9] | Binder | binding result [6] | binding result [7] | binding result [8]
61100 | 59500 | 48900 | 98.6% | 99.1% |  | HW-16 chimeric rabbit-human IgG1 LA/LA/PG (antibody, V domains shown, Fc-silenced (L234A/L235A/P329G) IgG1, kappa; Alexa Fluor 647-labeled in single-step flow cytometry; Cluster C-45) VH: QSLEESGGRLVTPGTPLTLTCTASGFSLSSYAMSWVRQAPGKGLEWIGTMPTGGGTYYASWAKGRFTISKTSTTVDLQITSPTTEDTATYFCAKHWNIWGPGTLVTISS VL: DIVLTQTPSSTSTAVGDTVTINCRASQSIGRNLAWFQQKPGQPPKLLIYRASNLASGVPSRFKGSGSRTQFTLTISGVQREDAATYYCLGSYSSSDTAFGGGTELEILR |  |  | 
682000 | 693000 | 640000 | 99.3% | 99.7% |  | HW-81 chimeric rabbit-human IgG1 LA/LA/PG (antibody, V domains shown, Fc-silenced (L234A/L235A/P329G) IgG1, lambda; Alexa Fluor 647-labeled in single-step flow cytometry; Cluster C-45) VH: QKQLVESGGGLVTPGGTLTLTCTVSGFSLSSNGVSWVRQAPGKGLEYIGLIRSIGSTYYATWAKGRFTISKTSTTVDLKITSPTTEDTATYFCARGGYRNGFKLWGPGTLVTVSS VL: QPVLTQSPSVSAALGASAKLTCTLSSAHKTYYIEWYQQQHPGKAPRYLMQLQSDGSYTKGTGVPDRFSGSSSGADRYLIISSVQAEDEADYICGVIDSAVYVFGGGTQLTVTG |  |  | 
 |  |  |  |  | 97.2% | HW-42 chimeric rabbit-human IgG1 LA/LA/PG (antibody, V domains shown, Fc-silenced (L234A/L235A/P329G) IgG1, lambda; Alexa Fluor 647-labeled in single-step flow cytometry; Cluster C-1) VH: QSVKESEGGLFKPADTLTLTCTVSGFSLSSNEISWVRQAPGEGLEYIGIIDTGGRAYYAVWARSRSTITRNTNLNTVTLKMTSLTAADTATYFCARGGVDTEWYAFSSWGPGTLVTVPS VL: SFVLTQPASVQVNLGQTVSLTCTADTLSRRYASWYQQKPGQAPVLLIFRDTSRPSGVPDRFSGSSSGDTATLTISGAQAGDEADYYCATSDGSGSNYQYVFGGGTQLTVTG | no binding (tested: 150 ng IgG1 per well) | no binding (tested: 150 ng IgG1 per well) | no binding (tested: 150 ng IgG1 per well)
 |  |  |  |  | 95.7% | HW-25 chimeric rabbit-human IgG1 LA/LA/PG (antibody, V domains shown, Fc-silenced (L234A/L235A/P329G) IgG1, lambda; Alexa Fluor 647-labeled in single-step flow cytometry; Cluster C-1) VH: QSLEESGGRLVTPGTPLTLTCTVSGFSLSSYAMGWVRQAPGKGLEWIGIIDSRGSTYYATWAKGRFTISKTSTTVDLKITSPTTEDTATYFCAREDSYYYDSFNLWGPGTLVTVSS VL: SFVLTQPASVQVNLGQTVSLTCTADTLSRRYASWYQQKPGQAPVLLIYRDTSRPSGVPDRFSGSSSGNTATLTISGAQAGDEADYYCATSDGSGSSYQCVFGGGTQLTVTG | no binding (tested: 150 ng IgG1 per well) | no binding (tested: 150 ng IgG1 per well) | no binding (tested: 150 ng IgG1 per well)
25400 | 29500 | 20800 | 99.4% | 96.8% |  | HW-45 chimeric rabbit-human IgG1 LA/LA/PG (antibody, V domains shown, Fc-silenced (L234A/L235A/P329G) IgG1, lambda; Alexa Fluor 647-labeled in single-step flow cytometry; Prototype of cluster C-45) VH: QKQLVESGGRLVTPGTPLTLTCTVSGFSLSSYAMGWFRQAPGKGLEWIGIINSYGSTYYASWAKGRFTISKTSTTVDLKITSPTTEDTATYFCGRRIGSARFDPWGPGTLVTVSS VL: SFVLTQPASVQVNLGQTVSLTCTADTLSRSYASWYQQKPGQAPVLLIYRDTRRPSGVPDRFSGSSSGNTATLTISGAQAGDEADYYCATSDGSGSSYRLVFGGGTQLTVTG |  |  | 
44400 | 50700 | 33900 | 99.4% | 98.6% |  | HW-28 chimeric rabbit-human IgG1 LA/LA/PG (antibody, V domains shown, Fc-silenced (L234A/L235A/P329G) IgG1, lambda; Alexa Fluor 647-labeled in single-step flow cytometry; Cluster C-45) VH: QKQLVESGGRLVTPGTPLTLTCTASGFSLSSNAMSWVRQAPGEGLQWIGTISSGGSTYYASWAKGRFTISKTSTTVTLKMTSLTTEDTATYFCARGADLHRLWGPGTLVTVSS VL: SFVLTQPASVQVNLGQTVSLTCTGKPLSRSFASWYQQKPGQAPVLVIYRDTSRPSGVPDRFSGSSSGNTATLTISGAQAGDEADYYCATSDGSGSSYQYVFGGGTQLTVTG |  |  | 
 |  |  |  |  | 98.9% | HW-70 chimeric rabbit-human IgG1 LA/LA/PG (antibody, V domains shown, Fc-silenced (L234A/L235A/P329G) IgG1, lambda; Alexa Fluor 647-labeled in single-step flow cytometry; Cluster C-1) VH: QSLEESGGRLVTPGTPLTLTCTVSGFSLSSNAMSWVRQAPGKGLEWIGTIDGYGYTYYASWAKGRFTVSKTSTTVDLKITSPTTEDTATYFCAREIYLGSNFWGPGTLVTISS VL: SFVLTQPASVQVNLGQTVSLTCTADTLSRRYASWYQQKPGQAPVLLIYRDTSRPSGVPDRFSGSSSGNTATLTISGAQAGDEADYYCATADGSGSSYQFVFGGGTQLTVTG | no binding (tested: 150 ng IgG1 per well) | no binding (tested: 150 ng IgG1 per well) | no binding (tested: 150 ng IgG1 per well)
481000 | 499000 | 497000 | 99.9% | 99.5% |  | HW-56 chimeric rabbit-human IgG1 LA/LA/PG (antibody, V domains shown, Fc-silenced (L234A/L235A/P329G) IgG1, kappa; Alexa Fluor 647-labeled in single-step flow cytometry; Cluster C-45) VH: QSVKESEGGLFKPTDTLTLTCTASGFTVSTNAVTWVRQAPGNGLEYIGTIGRSGSAYFASWAKRRSTLTRDINLNTVTLKMTSLTAADTATYFCVRGSPGYRTAISIWGPGTLVTISS VL: AVMTQTPSSTSAAVEGTVTINCQASQSISNRLSWFQQKPGQPPKLLIYQASTLASGVPSRFKGSGSGTEFTLTISGVQREDAATYYCLGSYSSSDASFGGGTKLEIKR |  |  | 
 |  |  |  |  | 1.86% | TH9-0022 (antibody, human IgG1, kappa, L234A L235A, V domains shown, also called TH9-022; negative control) VH: QSLEESGGRLVTPGTPLTLTCTVSGFSLSSYAMNWVRQAPGKGLEWIGIINSYGSTYYASWAKGRFTISKTSTTVDLKITSPTTEDTATYFCARVTYDSYGYGYAPYGMDLWGPGTLVTVSS VL: LVMTQTPSSTSNAVGGTVTIKCQASQSIGNVLAWYQQKPGQPPKLLIYAASTLASGVPSRVGGSRSGTEYTLTISGVQREDAATYYCLGSDSDSDIAFGGGTELEILR |  |  | 
